We go through 40 sequences from the nanobody polyreactivity screen of Harvey et al. (2022).

The nature of this series: yeast display, Sf9 membrane polyspecificity reagent, FACS + sequencing; frameworks hold sequencing errors. An outline of the steps:
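Nanobodies came from a synthetic yeast display library in Saccharomyces cerevisiae BJ5465, induced with galactose for 36–48 hours and stained for 1 hour at 4 °C with 10% biotinylated, detergent-solubilized Sf9 membrane reagent. Cells were enriched on streptavidin microbeads and then FACS-sorted, with low and high (top ~1%) gates set on anti-HA fluorescence for expression and streptavidin fluorescence for reagent binding. Each polyreactivity label reflects the gate a clone came from. Genes were amplified by colony PCR, sequenced by MiSeq 2 × 250 and filtered by CDR length.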
As for “QVQLVESGGGLVQAGGSLRLSCAASGRIFFRYVMGWYRPAPGKERELVATSTRSGGTTYYADSVKGRFTISRDNAKNTVYLQMNSLKPEDTAVYYCATDYTYHRVGPLYGFWGQGTQLTVSS”, the “polyreactivity (PSR sort gate)” value is reported as “low polyreactivity”.
The value for “QVQLVESGGGLVQAGVSLRLSCSASGLTFRPNAIGWYRQAPGKERELVAAITWSGGRTYYADSVKGRFTISRDNATNTVYFQMNSLKPEDTAVYYCAAVPLRNRWPNSWPALDYWGQVTQVTVSS” was “high polyreactivity”; that for “QVQLVESGGGLVQAGGSLRLSCAASGFIFRGYAMGWYRQAPGKERELVAAISRSGGSTYYADSVKGRFTISRDNAKNTVYLQMNSLKPEDTAVYFCAVALFETGHYYWGQGTQVTVSS” was “high polyreactivity”.
The value for “QVQLVESGGGLVQAGGSLRLSCAASGFIFNNYAMGWSRQAPGKERELVAAITWSGGGTYYADSVKGRFTISRDNAKNTVYLQMNSLKPEDSAVYYCAVYYPAYLEEYWGQGTQVTVSS” was “high polyreactivity”; that for “QVQLVESGGGLVQAGGSLRLICAASGRIFEKYAMGWYRQEPGKERELVAAISSSGGSTYYADSVKGRFTISRDIAKNTVYLQMNSLKPDDTAVYYCAKLVVVPFYYWGQGTQVSVSS” was “high polyreactivity”.
The value for “QVQLVESGGGLFQAGGSLRLSCAASGSTFVKYAMGRSRPAPAKERELVAAINRSGASTYYADSVKGRFTISRDNATNTVNLQMISLKPEDTAVYYCAARFSWLGYYWGQGTQETVSS” was “high polyreactivity”; that for “QVQLVESGGGLVQAGGSLRLSCAASGSPFRRYAMGWYRQAPGTERELVAAISWRGGSTRYADSVKGRFTLSRDNAKNTVYLQMNSLKPEDTAVYYCAALGSYGNPPSYNYWGQGTQVTVSS” was “high polyreactivity”.
On to “QVQLVESAGGLVQAGGRLRLSCAASGFIFYRYAMGWYRQAPGKERELVAAISRNGGSTYYADSVKGRFTISRDNAKNTVYLQRNILKPEDTAVYYCNVDYRLVRIRVDYEYWGQGTQVTVSS”, for which the “polyreactivity (PSR sort gate)” value is reported as “high polyreactivity”.
The value for “QVQLVESGGGLVQAGGSLRLSCAASGSIFSVYAMGWYRQAPGKERELVATITWSGGRTYYADSVKGRFTISRDNAKNTVYLQMNSLKPEDTAVYYCAATSWWATTGFDYWGQGTQVTVSS” was “low polyreactivity”.
The value for “QVQLVESGGGLVQAGGSLRLSCAASGFTFVINDMGWYRQAPGKERELVADITSGGDTYYADSVKGRFTISRDNAKNTVYLQMNSLTPEDTAVYYCAADIYPDWIYLLYGYWGHGTQVTVSS” was “low polyreactivity”.
The value for “QVQHVESGGGLVQAGGSLRLSCAASGRTFGYNDMGWSRQAHGKERELVATISWGGGSTYYADSVKWRFTISRDNAKNTVYLQMNSLKAEDTAVYYCNKVHFGRRHSYSGAIYGEDYWGLGTQVTVSS” was “high polyreactivity”.
Turning to “QVQLVESGGGLVQAGGSLRLSCAASGRIFRAYAMGWYRQAPGKERELVAAISYRGGSTYYADSVKGRFTISRDNAKNTVYLQMNSLKPEDTAVYYCAADSDRSVWIYGYSGQGTQVTVSS”, the “polyreactivity (PSR sort gate)” value is recorded as “low polyreactivity”.
For the sequence “QVQLVESGGGLVQAGGSLRLSCAASGSTFFHNAMGWYRQAPGKERELVAAINWNGGSTYYADSVKGRFTISRDNAKNTVYLQMNSLKPEDTAVYYCAADIYTYLGAYYIGYYWGQGTQVTVSS”, the “polyreactivity (PSR sort gate)” value is on record as “low polyreactivity”.
Consider “QVQLVESGGGLVQAGGSLRLSCAASGSIFPSNAMGWYRQAPGKERELVAAINRDGITNYADSVKGRFTISRDNAKNTVYLQMNSLKPEDTAVYYCNAYNYDFYASFWYEVDYWGLGTQVTVSS”, for which the “polyreactivity (PSR sort gate)” value was “low polyreactivity”.
On to “QVQLVESGGGLVQAGGSLRLSCAASGRNFYPYAMVWYRQAPGKERELVAAISKSGGRTYYADSVKGRFTISRDNAKNTVDLQMNSLKPEDTAVYYCNAAPGYTYVTYDYWGQGTLVTVSS”, for which the “polyreactivity (PSR sort gate)” value was “high polyreactivity”.
The value for “QVQHVESGGGLDQAGGSLRLSCAASGSILTRYVMGWYRQAPGKERELVAAISQRGGSTYYADSVTGRFTISRDTAKYTVFLQMNSLKPEDTAVYYCAAETRVTSRRRFDYWGQGTQVTVSS” was “high polyreactivity”.
In the case of “QVQLVESGGGLVQAGGSLRLSCAASGSTFVGYAMGWYRQAPGKERELVAAISYSGGSTYYADSVKGRFTISRDNAKNTVYLQMNSLKPEDTAVYYCAAEWSRHYYYGPRYDYWGQGTQVTVSS”, the “polyreactivity (PSR sort gate)” value was “low polyreactivity”.
The value for “QVLLEDSGGGLVQAGARLRLICAASGRIHVNAMGWYRQAPGKERELVASINIGDGTHYADSVKGRFTISRANAKNTVYLQLNSLISEVTAVYYCAADSRSSNACYDYWGQGTQVSVSS” was “low polyreactivity”.
Consider “QVHLVESGGGLVQAGGSLRLTCAASGSIFTVYALGWYRQAPGKERELVAAITRNGGRTYYADSVKGRFTISRDNAKNTVYLQMNSLIPEDTAGYYCAAPGLYSRLDYWGQGTQVTVSS”, for which the “polyreactivity (PSR sort gate)” value is recorded as “high polyreactivity”.
The value for “QVQLVESGGGLVQAGGSLRLSCAASGLIFRPYDMGWYRQAPGKERELVAAISNGDSTNYADSVKGRFTISRDNAKNTVYLQMNSLKPEDTAVYYCAAEDYYIYREPYDYWGQGTQVTVSS” was “low polyreactivity”; that for “QVQLVESGGGLVQAGGSLRLSCAASGSTFRRYAMGWYRQAPGKERELVAAITTNGGSTYYADSVKGRFTISRDNAKNTVYLQMNSLKPEDTAVYYCNARWPYRQRGYDYWGQGTQVTVSS” was “high polyreactivity”.
The value for “QVQLVESGGGLVQAGGSLRLSCAASGRIFSGYAMGWYRQAPGKERELVAAISQRGGSTTYADSVKGRFTISRDNAKKTVDLQMNSLKPEDTAVYDCAKRYTYPSGYDYWGQGTQVTVSS” was “low polyreactivity”.
As for “QVQLVESCGGLDQAGGSLRLSCAASALTFVDNAMGWYRQAPGKERELVAAISYNGGSTYYADSVKGRFTISRDNAKNTVYLQMNCLKPEDTAVYYCAADISVGRYGDMDYWGQGTLVTVSS”, the “polyreactivity (PSR sort gate)” value is on record as “low polyreactivity”.
The value for “QVKLVESGRGLVQAGGSLRLSCAASGITFISNAMAVYRQAPGKERELVAAISYRGGSTYYADSVKGRFTISRDNAKNTVYLQMNSLKPEDTAVYDCAARFHYPGGPRYYYWGQGTQVTVSS” was “high polyreactivity”; that for “QVQLVESGGGLVQAGGSLRLSCAASGRTFSYNAMGWYRQAPGKERELVAAINWRAGRTYYADSVKGRFTISRDNAKNTVYLQMNSLKPEDTAVYYCNARSGRGQAYGYWGQGTQVTVSS” was “high polyreactivity”; that for “QVQLVESGGGLVQAGGSLRLSCAASGSIFGYYAMGCYRQAPGKERELVAAITNGGSTSYADSVKGRFTISRDNAKNTVDLQMNSLKPEETSVYYCNARFKRLFGRADDYWGQGTQVTVSS” was “low polyreactivity”.
For “QVQLVESGGGFVQAGGSLRLSCAASGYIFGIYAMGWYRQAPGKERELVAAISTSGGSTYYADSVKGRFTISRDNAKNTVYLQMNSLKPEDTAVYYCARPTTYGYYYWGQGTQVTVSS”, the “polyreactivity (PSR sort gate)” value is recorded as “high polyreactivity”.
On to “QVHLVESGGGLVQAGGSLRLSCAASGFTITYNAMGWYRQAPGKEREFVAAITNNGSTYYADSVKGRFTISRDNAKNSVYLQMKSLKPEDTAVYYCAVDRGYYDEYNYWGQGTHVTVSS”, for which the “polyreactivity (PSR sort gate)” value is given as “low polyreactivity”.
Take “QVQLVESGGGLVQAGGSLRLSCAASGFTFWRYGMGWYRQAPGKERELVASITSGGGTNYADSVKGRFTISRDNAKNTVYFQMNSLKPEDTAVYYCAATYPYSWVYSGYYYWGQGTQVTVSS”: the “polyreactivity (PSR sort gate)” value is on record as “low polyreactivity”.
The value for “QVQLQESGGGLVQAGGSLRLSCAASGSIAHYIFMGWYRQAPGKEREFVAGIGYGGTTNYADSVKGRFTISRDNAKNTVYLQMNSLKPEDTAMYYCAAREATEFYLYYWGQGTQVTVSS” was “low polyreactivity”; that for “QVQLVESGGGLVQAGGSLRLSCAASGFTFLSYAMGWYRQAPGKERELVAAISRSGGSTYYADSVKGRFTISRDNAKNTVYLQMNSLKPEDTAVYYCAARSAFRNQFSRNNYWGQGTQVTVSS” was “high polyreactivity”; that for “QVQLVESGGGLVQAGGSLRLSCAASGRIFSYYAMGWYRQAPGKERELVAAITKSGGSTFYADSVKGRFTISRDNAKNTVYLQMNSLKPEDTAVYYCAAEVTLEDWGYSWKYDYLGQGTQVTVSS” was “high polyreactivity”.
The value for “QVQLVESGGGLVQAGGSLRLSCAASGSIFKWYAMGWYRQAPGKEREFVAAITNGGGSTYYADSVKGRFTISRDNAKNTVYLQMNSLKPEDTAVYYCAKDGHSYYPWEYDYWGQGTQVTVSS” was “low polyreactivity”; that for “QVQLVESGGGLVQAGGSLRLSCAASGSTFGRYAMGWYRQAPGKEREFVAGITGRGGSTYYADSVKGRFTISRDNAKNTVYLQMNSLKPEDTAVYYCAAGYRVGYLRAGDYWGQGTQVTVSS” was “high polyreactivity”.
Regarding “QVQLVESGGGLVQAGGSLRLSCAASGRIFARYVMGWYRQAPGKERELVAAISPSGSRTYYADSVKGRFTISRDNAKNTVYLQMNSLKPEDTAVYYCAATGVYTKNPRGMDYWGQGTQVTVSS”, the “polyreactivity (PSR sort gate)” value was “high polyreactivity”.
The value for “QVQLVESGGGLVQAGGSLRLSCAASGLIVVHYAMGWYSQAPGKVREFVAAITWSGGSTYYADSVKGRFTISRDNAKNTVYLQMNSLKPEDTAVYYCAVDGFRPGTASFGYWGQGTQVTVSS” was “low polyreactivity”; that for “QVQLVESGGGLVQAGGSLRLSCAASGLIFYKYAMGWYRQAPGKERELVAAITSGGSTNYADSVKGRFTISRDNAKNTVYLQMNSLKPEDTAVYYCNADYHPYLVVRWWYPPVDYWGQGNQVTVSS” was “low polyreactivity”.
With “QVQLVESGGGLVQAGGSLRLSCAASGITFYSYAMGWYRQAPGKEMELVAAITRSGGSTYYADSVKGRFTISRDNAKNTVYLQMISLKPEDTAVYYCAAEEGRVFSGGYEYWGQGTQVTVSS”, the “polyreactivity (PSR sort gate)” value is reported as “high polyreactivity”.
On to “QVQLVESGGGLVQAGGSLRLSCAASGRTFAWNTMGWYRQAPGKERELLAAISGSGGSTYYADSVKGRFTISRDYAKNTVYLQMNSLKPEDTAVYYCARRVDSYYGHTLYYYWGQGTQVTVSS”, for which the “polyreactivity (PSR sort gate)” value is “high polyreactivity”.
The value for “QVQLVESGGGLVQAGGSLRLSCPASGRIFGYNSMGWYRQAPGKEREMVATMSSGGGSNYADSVKGRFTISRDNAKNTVYLQMKSLKPEDTAVFYCAADLFLDGSSLYAPNWWPDGWNTYRVLGGYWGQGTQVTVSS” was “low polyreactivity”.
